# PMC10602139, “Architecture and rearrangements of a sperm-specific Na^+/H^+ exchanger” (Research Square, 2023)
# B1: sp9C1 R399A mutant, tag cleaved (cryo-EM sample) (natural protein, Strongylocentrotus purpuratus, UniProt A3RL54 30-1325, looked up)
# chain: SSGGSGHTPTTQATHADDHDLTTHNGTEEHDDGHDDGHDDLHAHAPKVIVFISGSCLFGAISRSLFKKLPIPYTVVLLILGAILGVVASNVPLVEEHTRDVAHMDPHVLLQIFLPVLIFESAFAMDVHTFMRSFSQVCILALFGLVVASVLTAVLAMNLFNYNWNFSEAMMFGAIMSATDPVAVVALLKDLGASKQLGTIIEGESLLNDGCAIVIFNVFMKMVFFPQLTSTVGQNVLYFLQVAVAGPLWGYAVAKVTVFFLSHIFNDALVEITITLAATYLTYYIGDIWLEVSGVLAVVVLGLIVNAEKTSISPEVEVFLHRFWEMLAYLANTLIFMMVGVVVTQKALVAVDKMDWFYLIILYLAITIIAGMVISLFSPILSRIGYGLTWRNAVIMTWGGLRGAVGLALALVVENLAGNDVIGSKFLFHTAGIVVLTLVINATTIQTLLRILGMSDISIPKRLAMAGAVRRIHEGQNRTLNMLKSDRFLADADWDIATAACEISDPYSALSDDENAPADELTLGERKSVCPGCKAMVPNEPSPREFADMMEEARLRMLKAEKISYWKQFEHGMLAREALRLLVQHAEVAADEKDQFILVDDLKKSWQIKGIYPWLKRKLEDLISEKKIAAIPMPKYKLGKLMYKICHHMAFEVTINIAIVLNIVPIIMEFVVQDKMASVSTMAAPGSTVSSEPSSLQKIEDALRISNYVFFVIYAIEAIVKILGLGRHYIVSHWNKFDAFILVVALVDIIIAETLLKGSITINLSSIKVVKLFRLLRGLRMLRLTKALIPKLILVVNGKINNQLSLGYDVGKGYIIGEEEVGKIIDRMVDNKKILRELKHISETGRLQVVKELGLLQREHPGIAVSVKTRQAIRTILNHSRETIHELQGAGLLDEMEAHKLELTVEIKMKRLMNAPSSIPPPPPENLLKNVSWLAGDMKLIDFIKARASLLHFDYGEVIVREGDESDGLFLIVSGLVKLYGKSAFLDHDNPPVTAGSEENEVFEDYLTVGNVIGEMGVLTKKPRNATVTCETTVQVYFITAEDMNIAIDTFTLYPSLEYRLWRVVAIRIATPLIMEQMAFQGWTQEKVKLHLERGYLVDLAESHFQFNIDATLEDVILINGTAYNAHTREEIRSPCLISRTVHKLTFQYTATEEPRLFVVRNAEYNGPILDGRLDVDSKRSLISITEISSNMCLKHAAELRQKNSKVMLSRKSSGAAAKEEEDCIPNTSDVEQAAGVSPSVPTKTTPKPKSFLPSLGLSMSKERVNGEAVEESPVKTKQGEETPETEEGAAPRVNV
# notes: SLC9C1, Strongylocentrotus purpuratus, full length with R399A; made in the background of the parent construct; source: HEK293F, transiently transfected; purified in digitonin (anti-GFP-nanobody resin, PreScission cleavage, gel filtration); not shown: mEGFP, C-terminal, cleaved; Twinstrep, C-terminal, cleaved
# Biological target: the molecule itself
# Assay: cryo-EM structure; single-particle cryo-EM of purified protein in digitonin micelles; pH 8 or pH 6, NaCl or KCl; WT also with 5 mM cAMP at pH 6; C2 symmetry imposed
protein,measurement,value
B1,binding result,binds
